In US20210340271A1 (PROMAB BIOTECHNOLOGIES, published 2021):

Experiments:
[1] = target: T1, CD18 on HEK293-CD18 cells (UniProt P05107 23-769); assay: immunofluorescent staining of transfected HEK293 cells
T1 construct: whole, on cells; also called negative control protein CD18

[2] = target: negative unrelated control protein; assay: ELISA, negative control antigen

T1 sequence (P05107 23-769 limits assumed): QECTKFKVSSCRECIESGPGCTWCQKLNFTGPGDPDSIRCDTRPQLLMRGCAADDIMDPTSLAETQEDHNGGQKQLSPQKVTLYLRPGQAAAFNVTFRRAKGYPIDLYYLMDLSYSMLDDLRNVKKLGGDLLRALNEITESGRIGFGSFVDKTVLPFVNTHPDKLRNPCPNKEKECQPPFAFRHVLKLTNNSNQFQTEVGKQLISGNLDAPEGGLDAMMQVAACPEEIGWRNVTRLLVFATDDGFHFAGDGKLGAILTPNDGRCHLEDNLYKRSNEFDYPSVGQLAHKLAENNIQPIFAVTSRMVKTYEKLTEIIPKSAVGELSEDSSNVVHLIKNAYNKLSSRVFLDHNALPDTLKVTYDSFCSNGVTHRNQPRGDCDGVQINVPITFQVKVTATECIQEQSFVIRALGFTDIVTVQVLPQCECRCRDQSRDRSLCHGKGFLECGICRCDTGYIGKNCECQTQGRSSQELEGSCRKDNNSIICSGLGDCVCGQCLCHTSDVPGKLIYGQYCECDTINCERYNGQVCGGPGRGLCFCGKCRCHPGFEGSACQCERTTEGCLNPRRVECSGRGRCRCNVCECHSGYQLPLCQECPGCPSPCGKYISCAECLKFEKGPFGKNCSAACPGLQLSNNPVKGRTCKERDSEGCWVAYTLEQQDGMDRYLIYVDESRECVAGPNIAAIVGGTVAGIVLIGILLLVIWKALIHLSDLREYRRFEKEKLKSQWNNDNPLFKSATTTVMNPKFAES

binding result [1]: no binding
OD405 [2]: 0.098 OD405
B1: mouse monoclonal anti-human CD37 antibody, clone 2B8D12 (antibody, IgG1, V domains shown)
VH: QVKLDETGGGLVQPGRPMKLSCVASGFTFSDYWMNWVRQSPEKGLEWVAQIRDKPYNYETFYSDSVKGRFTISRDDSKSSVYLQMNNLGAEDMGIYYCTGSFAYWGQGTLVTVSA
VL: DIQMTQSPASLSASEGETVTITCRASGNIHNYLAWYQQKQGKSPQLLVYNAKTLPDGVPSRVSGSGSGTQYSLKINNLQPEDFGNYYCQQYWSTPYTFGGGSRLEIKR
notes: Mouse hybridoma antibody; also called antibody CD37; CD37 antibody (2B8D12)
